The results in this text go back to article doi:10.1101/2020.03.05.978833.

The subject of this series is FasR wild-type (His6, EMSA) (Mycobacterium tuberculosis H37Rv). Kind of series: EMSA.

The Kd is the equilibrium constant for the complex coming apart.

PfasMT promoter fragment (398 bp) showed a Kd of 83 nM.
